Results from US20160272693A1 (ZEALAND PHARMA A S, published 2016).
*1 amine or outer side, *2 acyl side, *3 side chain or, on linkers, in order; H or OH if unused. Bridges are numbered along the chain shown (N, C = ends). [ ]: non-standard residue; d: D form. The star is where a group is joined. C20 diacid = O=C(O)CCCCCCCCCCCCCCCCCCC(=O)*; γGlu = O=C(O)[C@H](CCC(=O)[*:2])N[*:1]; Hyp = O=C(O)[C@@H]1C[C@@H](O)CN1; NMeI = CC[C@H](C)[C@H](NC)C(=O)O; Sar = CNCC(=O)O

T1: human amylin receptor 3 (hAMYR3), hCTR2 co-expressed with human receptor activity modifying protein 3 (hRAMP3) (human, UniProt P30988 25-474; O60896 24-148)
T1 sequence (looked up) 1: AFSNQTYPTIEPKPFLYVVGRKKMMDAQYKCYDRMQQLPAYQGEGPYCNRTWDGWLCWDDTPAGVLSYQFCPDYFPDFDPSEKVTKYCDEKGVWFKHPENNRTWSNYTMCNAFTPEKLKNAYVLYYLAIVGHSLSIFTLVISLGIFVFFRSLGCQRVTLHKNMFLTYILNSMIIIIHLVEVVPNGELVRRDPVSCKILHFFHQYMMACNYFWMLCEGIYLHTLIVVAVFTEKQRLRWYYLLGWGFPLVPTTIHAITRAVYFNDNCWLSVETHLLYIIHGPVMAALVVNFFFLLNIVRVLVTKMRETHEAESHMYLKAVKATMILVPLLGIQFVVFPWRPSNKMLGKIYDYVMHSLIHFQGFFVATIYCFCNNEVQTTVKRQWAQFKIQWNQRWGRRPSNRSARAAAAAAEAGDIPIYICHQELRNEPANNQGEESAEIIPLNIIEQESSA
T1 sequence (looked up) 2: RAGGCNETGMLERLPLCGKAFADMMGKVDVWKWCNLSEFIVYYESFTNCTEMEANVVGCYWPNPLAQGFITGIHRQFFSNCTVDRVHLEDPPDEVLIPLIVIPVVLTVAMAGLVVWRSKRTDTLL


Each binder was assayed against T1, human amylin receptor 3 (hAMYR3), hCTR2 … (assay: cell-based or functional assay).

Row | Binder | hAMYR3 EC50 (nM); cAMP induction
1 | {C20 diacid-γGlu}-RCNTATCATQRLADFLQRSSF[Sar]A[NMeI]LSSTEVGSNTP-NH2 (disulfide 2-7; SMILES CC[C@H](C)[C@@H](C(=O)N[C@@H](CC(C)C)C(=O)N[C@@H](CO)C(=O)N[C@@H](CO)C(=O)N[C@H](C(=O)N[C@@H](CCC(=O)O)C(=O)N[C@H](C(=O)NCC(=O)N[C@@H](CO)C(=O)N[C@@H](CC(N)=O)C(=O)N[C@H](C(=O)N1CCC[C@H]1C(N)=O)[C@@H](C)O)C(C)C)[C@@H](C)O)N(C)C(=O)[C@H](C)NC(=O)CN(C)C(=O)[C@H](Cc1ccccc1)NC(=O)[C@H](CO)NC(=O)[C@H](CO)NC(=O)[C@H](CCCNC(=N)N)NC(=O)[C@H](CCC(N)=O)NC(=O)[C@H](CC(C)C)NC(=O)[C@H](Cc1ccccc1)NC(=O)[C@H](CC(=O)O)NC(=O)[C@H](C)NC(=O)[C@H](CC(C)C)NC(=O)[C@H](CCCNC(=N)N)NC(=O)[C@H](CCC(N)=O)NC(=O)[C@@H](NC(=O)[C@H](C)NC(=O)[C@@H]1CSSC[C@H](NC(=O)[C@H](CCCNC(=N)N)NC(=O)CC[C@H](NC(=O)CCCCCCCCCCCCCCCCCCC(=O)O)C(=O)O)C(=O)N[C@@H](CC(N)=O)C(=O)N[C@@H]([C@@H](C)O)C(=O)N[C@@H](C)C(=O)N[C@@H]([C@@H](C)O)C(=O)N1)[C@@H](C)O) [[19CD]-isoGlu-R-C( )-NTAT-C( )-ATQRLADFLQRSSF-Gly(Me)-A-Ile(Me)-LSSTEVGSNTP-NH2 (Compd. 65)] | 0.26 nM
2 | {C20 diacid-γGlu}-RCNTATCATERLADFLQRSSF[Sar]A[NMeI]LSSTEVGSNTP-NH2 (disulfide 2-7; SMILES CC[C@H](C)[C@@H](C(=O)N[C@@H](CC(C)C)C(=O)N[C@@H](CO)C(=O)N[C@@H](CO)C(=O)N[C@H](C(=O)N[C@@H](CCC(=O)O)C(=O)N[C@H](C(=O)NCC(=O)N[C@@H](CO)C(=O)N[C@@H](CC(N)=O)C(=O)N[C@H](C(=O)N1CCC[C@H]1C(N)=O)[C@@H](C)O)C(C)C)[C@@H](C)O)N(C)C(=O)[C@H](C)NC(=O)CN(C)C(=O)[C@H](Cc1ccccc1)NC(=O)[C@H](CO)NC(=O)[C@H](CO)NC(=O)[C@H](CCCNC(=N)N)NC(=O)[C@H](CCC(N)=O)NC(=O)[C@H](CC(C)C)NC(=O)[C@H](Cc1ccccc1)NC(=O)[C@H](CC(=O)O)NC(=O)[C@H](C)NC(=O)[C@H](CC(C)C)NC(=O)[C@H](CCCNC(=N)N)NC(=O)[C@H](CCC(=O)O)NC(=O)[C@@H](NC(=O)[C@H](C)NC(=O)[C@@H]1CSSC[C@H](NC(=O)[C@H](CCCNC(=N)N)NC(=O)CC[C@H](NC(=O)CCCCCCCCCCCCCCCCCCC(=O)O)C(=O)O)C(=O)N[C@@H](CC(N)=O)C(=O)N[C@@H]([C@@H](C)O)C(=O)N[C@@H](C)C(=O)N[C@@H]([C@@H](C)O)C(=O)N1)[C@@H](C)O) [[19CD]-isoGlu-R-C( )-NTAT-C( )-ATERLADFLQRSSF-Gly(Me)-A-Ile(Me)-LSSTEVGSNTP-NH2 (Compd. 66)] | 0.3 nM
3 | {C20 diacid-γGlu}-RCNTATCATERLAHFLQRSSF[Sar]A[NMeI]LSSTEVGSNTP-NH2 (disulfide 2-7; SMILES CC[C@H](C)[C@@H](C(=O)N[C@@H](CC(C)C)C(=O)N[C@@H](CO)C(=O)N[C@@H](CO)C(=O)N[C@H](C(=O)N[C@@H](CCC(=O)O)C(=O)N[C@H](C(=O)NCC(=O)N[C@@H](CO)C(=O)N[C@@H](CC(N)=O)C(=O)N[C@H](C(=O)N1CCC[C@H]1C(N)=O)[C@@H](C)O)C(C)C)[C@@H](C)O)N(C)C(=O)[C@H](C)NC(=O)CN(C)C(=O)[C@H](Cc1ccccc1)NC(=O)[C@H](CO)NC(=O)[C@H](CO)NC(=O)[C@H](CCCNC(=N)N)NC(=O)[C@H](CCC(N)=O)NC(=O)[C@H](CC(C)C)NC(=O)[C@H](Cc1ccccc1)NC(=O)[C@H](Cc1c[nH]cn1)NC(=O)[C@H](C)NC(=O)[C@H](CC(C)C)NC(=O)[C@H](CCCNC(=N)N)NC(=O)[C@H](CCC(=O)O)NC(=O)[C@@H](NC(=O)[C@H](C)NC(=O)[C@@H]1CSSC[C@H](NC(=O)[C@H](CCCNC(=N)N)NC(=O)CC[C@H](NC(=O)CCCCCCCCCCCCCCCCCCC(=O)O)C(=O)O)C(=O)N[C@@H](CC(N)=O)C(=O)N[C@@H]([C@@H](C)O)C(=O)N[C@@H](C)C(=O)N[C@@H]([C@@H](C)O)C(=O)N1)[C@@H](C)O) [[19CD]-isoGlu-R-C( )-NTAT-C( )-ATERLAHFLQRSSF-Gly(Me)-A-Ile(Me)-LSSTEVGSNTP-NH2 (Compd. 62)] | 0.22 nM

Now from value to binder:

Row | hAMYR3 EC50 (nM); cAMP induction | Binder
4 | 0.17 nM | {C20 diacid}-[γGlu]RCNTATCATQRLAHFLQRSSF[Sar]A[NMeI]LSSTEVGSNTP-NH2 (disulfide 3-8; SMILES CC[C@H](C)[C@@H](C(=O)N[C@@H](CC(C)C)C(=O)N[C@@H](CO)C(=O)N[C@@H](CO)C(=O)N[C@H](C(=O)N[C@@H](CCC(=O)O)C(=O)N[C@H](C(=O)NCC(=O)N[C@@H](CO)C(=O)N[C@@H](CC(N)=O)C(=O)N[C@H](C(=O)N1CCC[C@H]1C(N)=O)[C@@H](C)O)C(C)C)[C@@H](C)O)N(C)C(=O)[C@H](C)NC(=O)CN(C)C(=O)[C@H](Cc1ccccc1)NC(=O)[C@H](CO)NC(=O)[C@H](CO)NC(=O)[C@H](CCCNC(=N)N)NC(=O)[C@H](CCC(N)=O)NC(=O)[C@H](CC(C)C)NC(=O)[C@H](Cc1ccccc1)NC(=O)[C@H](Cc1c[nH]cn1)NC(=O)[C@H](C)NC(=O)[C@H](CC(C)C)NC(=O)[C@H](CCCNC(=N)N)NC(=O)[C@H](CCC(N)=O)NC(=O)[C@@H](NC(=O)[C@H](C)NC(=O)[C@@H]1CSSC[C@H](NC(=O)[C@H](CCCNC(=N)N)NC(=O)CC[C@H](NC(=O)CCCCCCCCCCCCCCCCCCC(=O)O)C(=O)O)C(=O)N[C@@H](CC(N)=O)C(=O)N[C@@H]([C@@H](C)O)C(=O)N[C@@H](C)C(=O)N[C@@H]([C@@H](C)O)C(=O)N1)[C@@H](C)O) [[19CD]-isoGlu-R-C( )-NTAT-C( )-ATQRLAHFLQRSSF-Gly(Me)-A-Ile(Me)-LSSTEVGSNTP-NH2 (Compd. 61)]
5 | 0.15 nM | {C20 diacid}-[γGlu]RCPTATCATQRLAHFLQRSSF[Sar]A[NMeI]LSSTEVGSNT[Hyp]-NH2 (disulfide 3-8; SMILES CC[C@H](C)[C@@H](C(=O)N[C@@H](CC(C)C)C(=O)N[C@@H](CO)C(=O)N[C@@H](CO)C(=O)N[C@H](C(=O)N[C@@H](CCC(=O)O)C(=O)N[C@H](C(=O)NCC(=O)N[C@@H](CO)C(=O)N[C@@H](CC(N)=O)C(=O)N[C@H](C(=O)N1C[C@H](O)C[C@H]1C(N)=O)[C@@H](C)O)C(C)C)[C@@H](C)O)N(C)C(=O)[C@H](C)NC(=O)CN(C)C(=O)[C@H](Cc1ccccc1)NC(=O)[C@H](CO)NC(=O)[C@H](CO)NC(=O)[C@H](CCCNC(=N)N)NC(=O)[C@H](CCC(N)=O)NC(=O)[C@H](CC(C)C)NC(=O)[C@H](Cc1ccccc1)NC(=O)[C@H](Cc1c[nH]cn1)NC(=O)[C@H](C)NC(=O)[C@H](CC(C)C)NC(=O)[C@H](CCCNC(=N)N)NC(=O)[C@H](CCC(N)=O)NC(=O)[C@@H](NC(=O)[C@H](C)NC(=O)[C@@H]1CSSC[C@H](NC(=O)[C@H](CCCNC(=N)N)NC(=O)CC[C@H](NC(=O)CCCCCCCCCCCCCCCCCCC(=O)O)C(=O)O)C(=O)N2CCC[C@H]2C(=O)N[C@@H]([C@@H](C)O)C(=O)N[C@@H](C)C(=O)N[C@@H]([C@@H](C)O)C(=O)N1)[C@@H](C)O) [[19CD]-isoGlu-R-C( )-PTAT-C( )-ATQRLAHFLQRSSF-Gly(Me)-A-Ile(Me)-LSSTEVGSNT-Hyp-NH2 (Compd. 64)]
6 | 0.37 nM | {C20 diacid}-[γGlu]RCPTATCATERLAHFLQRSSF[Sar]A[NMeI]LSSTEVGSNT[Hyp]-NH2 (disulfide 3-8; SMILES CC[C@H](C)[C@@H](C(=O)N[C@@H](CC(C)C)C(=O)N[C@@H](CO)C(=O)N[C@@H](CO)C(=O)N[C@H](C(=O)N[C@@H](CCC(=O)O)C(=O)N[C@H](C(=O)NCC(=O)N[C@@H](CO)C(=O)N[C@@H](CC(N)=O)C(=O)N[C@H](C(=O)N1C[C@H](O)C[C@H]1C(N)=O)[C@@H](C)O)C(C)C)[C@@H](C)O)N(C)C(=O)[C@H](C)NC(=O)CN(C)C(=O)[C@H](Cc1ccccc1)NC(=O)[C@H](CO)NC(=O)[C@H](CO)NC(=O)[C@H](CCCNC(=N)N)NC(=O)[C@H](CCC(N)=O)NC(=O)[C@H](CC(C)C)NC(=O)[C@H](Cc1ccccc1)NC(=O)[C@H](Cc1c[nH]cn1)NC(=O)[C@H](C)NC(=O)[C@H](CC(C)C)NC(=O)[C@H](CCCNC(=N)N)NC(=O)[C@H](CCC(=O)O)NC(=O)[C@@H](NC(=O)[C@H](C)NC(=O)[C@@H]1CSSC[C@H](NC(=O)[C@H](CCCNC(=N)N)NC(=O)CC[C@H](NC(=O)CCCCCCCCCCCCCCCCCCC(=O)O)C(=O)O)C(=O)N2CCC[C@H]2C(=O)N[C@@H]([C@@H](C)O)C(=O)N[C@@H](C)C(=O)N[C@@H]([C@@H](C)O)C(=O)N1)[C@@H](C)O) [[19CD]-isoGlu-R-C( )-PTAT-C( )-ATERLAHFLQRSSF-Gly(Me)-A-Ile(Me)-LSSTEVGSNT-Hyp-NH2 (Compd. 63)]
7 | 0.65 nM | {C20 diacid}-[γGlu]RCPTATCATERLADFLQRSSF[Sar]A[NMeI]LSSTEVGSNTP-NH2 (disulfide 3-8; SMILES CC[C@H](C)[C@@H](C(=O)N[C@@H](CC(C)C)C(=O)N[C@@H](CO)C(=O)N[C@@H](CO)C(=O)N[C@H](C(=O)N[C@@H](CCC(=O)O)C(=O)N[C@H](C(=O)NCC(=O)N[C@@H](CO)C(=O)N[C@@H](CC(N)=O)C(=O)N[C@H](C(=O)N1CCC[C@H]1C(N)=O)[C@@H](C)O)C(C)C)[C@@H](C)O)N(C)C(=O)[C@H](C)NC(=O)CN(C)C(=O)[C@H](Cc1ccccc1)NC(=O)[C@H](CO)NC(=O)[C@H](CO)NC(=O)[C@H](CCCNC(=N)N)NC(=O)[C@H](CCC(N)=O)NC(=O)[C@H](CC(C)C)NC(=O)[C@H](Cc1ccccc1)NC(=O)[C@H](CC(=O)O)NC(=O)[C@H](C)NC(=O)[C@H](CC(C)C)NC(=O)[C@H](CCCNC(=N)N)NC(=O)[C@H](CCC(=O)O)NC(=O)[C@@H](NC(=O)[C@H](C)NC(=O)[C@@H]1CSSC[C@H](NC(=O)[C@H](CCCNC(=N)N)NC(=O)CC[C@H](NC(=O)CCCCCCCCCCCCCCCCCCC(=O)O)C(=O)O)C(=O)N2CCC[C@H]2C(=O)N[C@@H]([C@@H](C)O)C(=O)N[C@@H](C)C(=O)N[C@@H]([C@@H](C)O)C(=O)N1)[C@@H](C)O) [[19CD]-isoGlu-R-C( )-PTAT-C( )-ATERLADFLQRSSF-Gly(Me)-A-Ile(Me)-LSSTEVGSNTP-NH2 (Compd. 67)]
